The text below walks through data of US20200138943A1 (Janssen / Centocor, published 2020).

Substitutions are numbered along the chain they refer to. Where only a bound is given, the exact number is not on record here.

Test [1] addresses T1, murine IL-23 (mouse, UniProt Q9EQ14 22-196; P43432 23-335).
T1 construct: also called mouse IL-23
T1 sequence (looked up) 1: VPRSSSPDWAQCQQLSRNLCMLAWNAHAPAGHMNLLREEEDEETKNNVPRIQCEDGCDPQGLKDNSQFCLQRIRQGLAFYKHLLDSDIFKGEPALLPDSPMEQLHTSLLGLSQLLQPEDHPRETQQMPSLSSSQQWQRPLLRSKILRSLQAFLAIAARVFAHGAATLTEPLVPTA
T1 sequence (looked up) 2: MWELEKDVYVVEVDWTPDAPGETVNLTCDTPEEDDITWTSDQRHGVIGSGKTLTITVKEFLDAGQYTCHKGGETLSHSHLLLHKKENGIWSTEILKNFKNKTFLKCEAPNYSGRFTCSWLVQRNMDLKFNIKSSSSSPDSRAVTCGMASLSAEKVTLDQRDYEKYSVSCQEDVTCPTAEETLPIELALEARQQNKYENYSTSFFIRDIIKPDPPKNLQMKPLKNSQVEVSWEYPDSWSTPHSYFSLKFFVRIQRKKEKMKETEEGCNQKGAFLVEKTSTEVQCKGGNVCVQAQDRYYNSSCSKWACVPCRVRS
Description: MSD ELISA: protein coated at 100 to 0 µg/mL, detected with 2 µg/mL Sulfo-TAG labeled mAb. As to the method:
One-hundred and fifty μl of 5% MSD Blocker A buffer was added to each well and incubated for 1 hr at room temperature. Plates were washed three times with 0.1 M HEPES buffer, pH 7.4. These protein-charged ELISA micro-wells were incubated with 25 μl of 2 μg/mL MSD Sulfo-TAG labeled C1249, C1269, or CNTO 209 mAbs. After incubation for 2 hours with shaking at room temperature, plates were washed 3 times with 0.1 M HEPES buffer (pH 7.4). MSD Read Buffer T was diluted with distilled water (4 fold) and dispensed at a volume of 150 μl/well and analyzed with a SECTOR imager 6000.
A general note: In an ELISA, binding on a coated surface is turned into a signal by an enzyme label.

Test [2] has as its target T2, human recombinant IL-12 (human, UniProt P29459 23-219; P29460 23-328).
T2 construct: p35-p40 heterodimer; also called hrIL-12
T2 sequence (looked up) 1: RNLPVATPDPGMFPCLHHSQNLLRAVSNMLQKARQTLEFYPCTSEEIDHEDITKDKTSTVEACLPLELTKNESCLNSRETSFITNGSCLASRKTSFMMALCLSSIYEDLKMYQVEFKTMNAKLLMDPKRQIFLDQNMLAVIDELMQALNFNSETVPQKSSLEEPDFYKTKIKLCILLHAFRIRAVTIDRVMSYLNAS
T2 sequence (looked up) 2: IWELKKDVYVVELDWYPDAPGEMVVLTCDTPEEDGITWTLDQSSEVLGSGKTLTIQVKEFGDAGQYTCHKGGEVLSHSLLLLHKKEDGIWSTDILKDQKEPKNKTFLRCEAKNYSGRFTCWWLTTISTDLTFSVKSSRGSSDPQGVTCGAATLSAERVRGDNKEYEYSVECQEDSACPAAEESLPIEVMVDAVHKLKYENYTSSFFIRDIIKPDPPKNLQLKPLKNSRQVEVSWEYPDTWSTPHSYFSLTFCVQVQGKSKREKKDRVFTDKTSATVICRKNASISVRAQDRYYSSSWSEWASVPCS
The experiment in a line: cytokine capture ELISA: mAb coated on the plate, cytokine at 100 ng/ml, detected with biotinylated anti-p40 mAb and HRP-streptavidin. As to the method: (§1) Purified mouse anti-human IL-23 mAbs were evaluated in cytokine capture ELISA to determine their antigen subunit specificity. Briefly, IL-23 mAbs were coated onto plates and incubated with 100 ng/ml (hr=human recombinant) hrIL-23, hrIL-12, and hrp40, respectively. Following incubation with biotinylated anti-p40 mAb, the binding was detected using HRP-conjugated streptavidin. An anti-p40 mAb and an anti-IL-12 mAb (20C2, Catalog No. 555065, BD Pharmingen, San Diego, Calif.) with known specificity were used as controls.

The target of test [3] is T3, human recombinant p40 monomer (human, UniProt P29460 23-328).
T3 construct: also called hrp40
T3 sequence (looked up): T2 sequence (looked up) 2
The description is as above. The procedure:
as §1

For test [4], the target named is mutant human IL-23 protein 3220 (human) (UniProt P29460). Description: MSD ELISA, coated IL-23 protein, Sulfo-TAG labeled mAb.
In test [5] the target is mutant human IL-23 protein 3397 (human) (UniProt P29460). The description is as above.
The target of test [6] is T4, human recombinant IL-23 (human, UniProt P29460 23-328).
T4 construct: p19-p40 heterodimer; also called hrIL-23; hIL-23
T4 sequence 1: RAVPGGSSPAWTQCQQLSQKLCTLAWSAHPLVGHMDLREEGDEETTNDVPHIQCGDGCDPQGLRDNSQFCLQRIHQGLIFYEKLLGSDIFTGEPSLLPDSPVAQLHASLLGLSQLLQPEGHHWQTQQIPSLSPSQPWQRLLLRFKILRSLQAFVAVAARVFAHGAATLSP
T4 sequence 2: T2 sequence (looked up) 2
The experiment in a line: competition ELISA: hIL-23 coated on the plate, 10 nM labeled C1269 mixed with the unlabeled competitor titrated from 3000 nM to 0. The procedure: […] of a 20 μg/ml hIL-23 coated on plate, mixed with 10 nM of labeled C1269 and serially diluted from 3000 nM to 0 unlabeled competitors, C1269 and C1249, in 25 μL. Relative binding was calculated by setting the signal in the absence of competitor to 100%.

Test [7] concerns the target T4, human recombinant IL-23. The experiment in a line: blocking ELISA: biotinylated hrIL-23 preincubated with the titrated mAb, binding to plate-immobilized IL-23R detected with HRP-streptavidin. The procedure: (§2) In this experiment, IL-23R was immobilized on a plate. Biotinylated hrIL-23 was added to the plate either alone or after preincubation with individual IL-23p19 mAbs. Soluble IL-23R (IL-23R-Fc) was used as a positive control. IL-23 binding was detected with HRP-conjugated streptavidin. […] In contrast, when IL-12Rβ1 was immobilized on a plate, none of the IL-23p19 mAbs were able to inhibit IL-23/IL-12Rβ1 binding (data not shown).

Test [8] addresses T4, human recombinant IL-23. The experiment in a line: blocking ELISA: biotinylated hrIL-23 preincubated with the titrated protein, binding to plate-immobilized IL-23R detected with HRP-streptavidin. As to the method: as §2
Test [9] deals with T4, human recombinant IL-23. The test is described as above. The procedure: as §2
This is another data set of the same source.

Test [10] has as its target T4, human recombinant IL-23. Description: ELISA: mAb immobilized on the plate, biotinylated IL-23 (bt.IL-23) titrated from about 0.01 to 100 ng/ml.

B1: C1269 (antibody, V domains shown)
VH: DVNLVESGGGLVKPGGSLKLSCAASGFTFSSYTMSWVRQTPEKRLEWVATISSGGTYTYYPDSVKGRFTISRDNAKNTLYLQMSSLKSEDTAIFYCTRDNHAYDRGPFFDSWGQGATLTVSS
VL: DIVMSQSPSSLAVSVGEKVTMSCKSSQNLFYRNNQKNYLAWYQQKPGQSPTLLIYWTSTRESGVPDRFTGSGSGTDFTLTISRVKAEDLAVYYCQQYYSYPPTFGGGTKLEIK
notes: Purified mouse monoclonal antibody; also called IL-23p19 mAb; mouse anti-human IL-23 mAb
Take B1: the results for the binding result in [1], in test [2] and in test [3] were “no binding”, “no binding (tested: 100 ng/ml)” and “no binding (tested: 100 ng/ml)”, respectively. The percent reduction of binding activity against wild-type human IL-23 in test [4] is more than 80%. Also, the percent reduction of binding against wild-type human IL-23 in test [5] was determined as 90%. Besides, the figures for the “IC50 (read off the curve)” value in test [6] and in [7] were approximately 20 nM and approximately 0.07 µg/mL, respectively.

B2: C1273 (antibody, V domains shown)
VH: B1 VH with I93M, S111Y
VL: B1 VL with A12V, N33S, Y38H
notes: as for B1
For the molecule B2, the binding result in test [2] and in test [3] was “no binding (tested: 100 ng/ml)” each time. Besides, in test [7], the “IC50 (read off the curve)” value is approximately 0.1 µg/mL.

B3: Soluble IL-23R (IL-23R-Fc) (Fc fusion, UniProt Q5VWK5 24-353, looked up, not shown: a dimerising Fc or GST)
chain: GITNINCSGHIWVEPATIFKMGMNISIYCQAAIKNCQPRKLHFYKNGIKERFQITRINKTTARLWYKNFLEPHASMYCTAECPKHFQETLICGKDISSGYPPDIPDEVTCVIYEYSGNMTCTWNAGKLTYIDTKYVVHVKSLETEEEQQYLTSSYINISTDSLQGGKKYLVWVQAANALGMEESKQLQIHLDDIVIPSAAVISRAETINATVPKTIIYWDSQTTIEKVSCEMRYKATTNQTWNVKEFDTNFTYVQQSEFYLEPNIKYVFQVRCQETGKRYWQPWSSLFFHKTPETVPQVTSKAFQHDTWNSGLTVASISTGHLTSDNRGD
For the molecule B3, the “IC50 (read off the curve)” value was approximately 0.04 µg/mL in test [8] and approximately 0.05 µg/mL in test [9].

B4: C1275 (antibody, V domains shown)
VH: EVNLEESGGGLVQPGRSMKLSCVASGFTFSNYWMTWVRQSPEKGLEWVAEIRLKSNNYATHYAESVKGRFTISRDDSKSSVYLQMNNLRAEDTAIYYCTRGGGYDVGAWFAYWGQGTLVTVSA
VL: DIVLTQSPASLAVSLGQRATISCRASENVEYYGTGLIQWYQQKPGQPPKLLIYASSNVESGVPARFSGSGSGTDFSLYIHPVEEDDIAMYFCQQSRKVPSTFGGGTKLEIK
notes: as for B1
With B4, the binding result was “no binding (tested: 100 ng/ml)” in test [2], “no binding (tested: 100 ng/ml)” in test [3] and “binds” in test [10].

B5: C1249 (antibody, V domains shown)
VH: EVQLVESGGGLVQPKGSLKLSCAASGFNFNTYAMHWVCQAPGKGLEWIGRIRSKSHNYATDYADPVKDRFTISRDDSQGLLYLLMNNLKTEDTAMYYCMREGIYGSFAYWGQGTLVTVSA
VL: DIVLTQSPASLAVSLGQRATISCRASKSVSSSAYSFFHWYQQKPGQPPKLLIYLASNLQSGVPARFSGSGSGTDFTLNIHPVEAEDAATYYCQHSGELPFTFGSGTKLEIK
notes: as for B1
Regarding B5, the binding result was “no binding” in test [1], “no binding (tested: 100 ng/ml)” in [2], “no binding (tested: 100 ng/ml)” in test [3] and “binds” in test [10]. Besides, the percent reduction of binding activity against wild-type human IL-23 in test [4] is more than 80%. Moreover, the percent reduction of binding against wild-type human IL-23 in test [5] stood at 95%.
